Consider 1 substance from patent publication US9738880B2, “Lysosomal protein targeting sequence and therapeutic applications of same” (Children's Hospital Medical Center, priority 2013, dated 2017).

“Also recorded” adds a separate entry of the source.

Experiment [1] deals with T1, ldLIMP2 (Homo sapiens, UniProt Q14108).
T1 construct: Purified luminal domain LIMP-2 (1d-LIMP2) was custom made (Sino Biological Inc., PRC.); purchased Sino Biological Inc
T1 sequence (Q14108 28-433 limits assumed): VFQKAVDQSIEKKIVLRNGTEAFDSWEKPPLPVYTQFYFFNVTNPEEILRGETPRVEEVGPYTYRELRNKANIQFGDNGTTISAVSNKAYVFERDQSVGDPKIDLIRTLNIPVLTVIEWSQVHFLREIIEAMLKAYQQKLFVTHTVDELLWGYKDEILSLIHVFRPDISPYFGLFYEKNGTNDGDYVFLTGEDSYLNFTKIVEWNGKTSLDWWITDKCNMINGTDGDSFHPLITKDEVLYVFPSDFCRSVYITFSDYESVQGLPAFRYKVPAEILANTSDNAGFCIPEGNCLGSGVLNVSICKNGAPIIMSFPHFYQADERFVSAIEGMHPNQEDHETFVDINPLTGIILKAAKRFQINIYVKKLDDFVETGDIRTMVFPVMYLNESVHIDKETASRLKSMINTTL
Nature of the experiment: Fluorescence polarization binding and competition of DDQRLLL GCase peptides to ldLIMP2. To be noted: ldLIMP2 fixed at 1000 nM; FIG. 13. The procedure: FIG. 13A-FIG. 13B: Competition and binding of fluorescent labeled or unlabeled DDQRLLL (SEQ ID NO 14) GCase peptides to ldLIMP2. FIG. 13A depicts the δmP of the WT (DDQRLLL (SEQ ID NO 14)) or variously alanine substituted labeled peptides were plotted against the corresponding unlabeled peptide competitors. Note that the fixed ldLIMP2 concentration was 1000 nM or 20 times that used in similar studies (FIG. 7A-FIG. 7C). For all peptides the δmP were near or at background levels. FIG. 13B depicts the binding δmP for the various peptides as in FIG. 13A. The signals were near background levels for all peptides using concentrations 5 to 10 times that for DSPIIV (SEQ ID NO 15) and with a 20 times greater LIMP2 fixed concentration.
Fluorescence Polarization: The DSPIIV (SEQ ID NO 15) and its mutants, and DDQRLLL (SEQ ID NO 14) peptides (FITC labeled or non-labeled) were synthesized (American Peptide Co., Vista, Calif.). Lyophilized peptides were solubilized in acetonitrile and then were diluted at least 10,000-fold into the reactions for fluorescence polarization assessments. The reactions were done at least in duplicate at various peptide and LIMP-2 concentrations (SpectraMax M5, Molecular Device). Fluorescence polarization data were collected and analyzed with SoftMax Pro 5.0 software. Reaction mixtures contained 100 mM phosphate, pH 6.8 and 1 mM DTT.

Experiment [2] has as its target T2, GCase binding to ldLIMP2 (Homo sapiens, UniProt Q14108).
T2 construct: Purified luminal domain LIMP-2 (1d-LIMP2) was custom made (Sino Biological Inc., PRC.); purchased Sino Biological Inc
T2 sequence (Q14108 28-433 limits assumed): T1 sequence (Q14108 28-433 limits assumed)
Nature of the experiment: Competitive immunoprecipitation of GCase with ldLIMP2 at increasing molar ratios of peptide. The procedure: FIG. 8A-FIG. 8C: Immunoprecipitation of GCase in the presence of ldLIMP2 and increasing molar ratios of the WT (DSPIIV (SEQ ID NO 15)) peptide. FIG. 8A depicts immunoprecipitation of GCase and LIMP-2. Purified WT GCase was preincubated with purified ldLIMP2 in a molar ratio of 1:1. Then, unlabeled DSPIIV (SEQ ID NO 15) was added in varying molar excesses (0 to 5×, top of figure) over GCase, incubated, and then immunoprecipitated with Protein G-coupled anti-LIMP-2 antibody beads. The beads were then eluted and the eluants were analyzed for GCase and ldLIMP2 on Western blots using the specified antibodies. […] In the bottom panel, ldLIMP2 recovery was the same at all peptide ratios. FIG. 8B depicts immunoprecipitation of GCase and LIMP-2. Purified ldLIMP2 was preincubated with unlabeled WT peptide at various molar ratios. Then, purified WT GCase was added in a 1:1 molar ratio with ldLIMP2, incubated, and then immunoprecipitated and processed as in FIG. 8A. […] FIG. 8C depicts immunoprecipitation of GCase and LIMP-2. Purified WT GCase was preincubated with purified ldLIMP2 in a molar ratio of 1:1. Then peptide DDQRLLL, a potential candidate for the GCase ligand for ldLIMP2, was added in varying molar excesses over WT GCase, incubated, and then immunoprecipitated and processed as in FIG. 8A. […] DDQRLLL (SEQ ID NO 14) is a dileucine peptide outside of the localized targeting region of DSPIIVDITKD (SEQ ID NO 3) (see FIG. 3).
FIG. 14A-FIG. 14B: Immunoprecipitation of GCase in the presence of ldLIMP2 and increasing molar ratios of the WT (DDQRLLL (SEQ ID NO 14)) peptide. In FIG. 14A or FIG. 14B, ldLIMP2 and DDQRLLL (SEQ ID NO 14) were incubated before (as shown in FIG. 14A) or together with (as shown in FIG. 14B) GCase and analyzed as in FIG. 8A-FIG. 8C.
Immunoprecipitation and Competition Studies: To further evaluate the interaction of ldLIMP-2, WT GCase, and the DSPIIV (SEQ ID NO 15) peptide, competitive immunoprecipitation experiments were conducted using increasing concentrations of the WT peptide in competition with GCase for binding (FIG. 8A). […]

In the case of DDQRLLL (GCase di-leucine sequence), the “binding to ldLIMP2 (δmP), in words” value in experiment [1] is recorded as “lack of binding; also recorded: little or no binding”. Also, the “competition of bound GCase off ldLIMP2, in words” value in experiment [2] (GCase preincubated with ldLIMP2 1:1, then peptide 0 to 5× molar excess) is given as “did not compete GCase off of ldLIMP2”. For the same substance, the “competition with GCase for ldLIMP2 binding, in words” value in experiment [2] (ldLIMP2, peptide and GCase incubated together, up to 5× molar excess) is reported as “did not complete with GCase; also recorded: does not compete with GCase”. The “prevention of GCase binding to ldLIMP2, in words” value in experiment [2] (peptide preincubated with ldLIMP2 before GCase was added, up to 5× molar) was “did not complete with GCase; also recorded: does not compete with GCase”.
